Here are results for 3 molecules from JP2004097211A (dated 2004).

Assay [1] has as its target T1, CDR1抗原ペプチド.
T1 peptide: RSSKSLLYSNGNTYLY
In words: cell-based or functional assay.

The target in assay [2] is ヘリコバクターピロリ菌のウレーアゼ (ヘリコバクターピロリ菌 (Helicobacter pylori)) (UniProt P14916). The assay is described as follows: cell-based or functional assay.

B1: i41SL1−2抗体の軽鎖 (other)
VL: DIVMTQTQLTLTINIGQPASISCKSSQSLLDSDGKTYLNWLFQRPGQSPKRLIYLVSKLDSGVPDRFTGSGSGTDFTLKISRVEAEDLGVYYCWQGTHFPLTFGAGTKLELRRA
modifications: cysteines reduced with b-mercaptoethanol and alkylated with iodoacetamide (positions not stated)
For the molecule B1, the “回転数(kcat)” value in assay [1] is ~0.005 fold of trypsin (trypsin measured on another synthetic peptide).

B2: HpU−20抗体のL鎖 (protein)
VL: DVLMTQTPLSLPISLGDQASISCRSSQSIVQSNGNTYLEWYVQKPGQSPKLLIYKVSNRFSGVPDRFSGSGSGTDFTFKISRVEAEDLGVYYCIQGSHVPLTFGAGTKLELKRA
modifications: cysteines reduced with b-mercaptoethanol and alkylated with iodoacetamide (positions not stated)
In assay [2], B2 displayed a タンパク質分解実験 (SDS-PAGE, 1 h): decrease of the β subunit band against the control of 26.7%.

B3: i41SL1−2抗体の重鎖 (other)
VH: QVQLQHSGAELVRPGSSVKVSCKALGYTSTDYEIHWVKQTPVRGLEWIGAIHPGSDVIVYNQKFKGTATLTADKSSSTAYMELRSLTSEDSAVYYCTREGGSVDYVWGQGTLVTVSA
modifications: cysteines reduced with b-mercaptoethanol and alkylated with iodoacetamide (positions not stated)
B3: in assay [1], the “回転数(kcat)” value is ~0.005 fold of trypsin (trypsin measured on another synthetic peptide) and the “触媒効率(kcat/Km)” value was ~0.1 fold of trypsin (trypsin measured on another synthetic peptide).
